# Test results: US20100021899
# pKd: −log10 of the molar value.
# Target: alpha-PrP (prion protein, alpha form) (UniProt P04156)
# Test: SPR
# Settings: PBS pH 7.0, room temperature
sequence,measurement,value
GTTCGGCACTTGGGCCCTTTTCTGTGTCTTTCTGTGCCCTTAGATAGTATGTGCAATCA [CaAp-3],pKd,6.94
